Data taken from patent publication US20230256114A1, “NOVEL MAYTANSINOIDS AS ADC PAYLOADS AND THEIR USE FOR THE TREATMENT OF CANCER” (priority 2020, published 2023).

Molecular target: T1, Trophoblast cell-surface antigen-2 (Trop-2) (human, UniProt P09758 27-323)
T1 sequence (looked up): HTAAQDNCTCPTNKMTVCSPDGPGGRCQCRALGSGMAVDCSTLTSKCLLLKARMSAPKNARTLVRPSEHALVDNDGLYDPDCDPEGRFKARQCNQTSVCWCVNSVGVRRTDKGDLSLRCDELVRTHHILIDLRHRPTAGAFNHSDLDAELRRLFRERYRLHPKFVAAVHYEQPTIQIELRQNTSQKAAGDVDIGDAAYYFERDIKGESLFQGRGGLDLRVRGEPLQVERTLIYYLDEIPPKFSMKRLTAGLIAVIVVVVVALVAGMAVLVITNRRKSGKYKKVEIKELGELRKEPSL
Test: cell-based or functional assay

B1: Anti-Trop-2-BI-P206 (antibody, V domains shown)
VH: SALMSRLTISKDTSKNQFSLKLSSVTAADTAVYYCARDENWDGAWFAYWGQGTLVTVSS
VL: DIVMTQSPDSLAVSLGERATINCKSSQSLLNSGTRKNYLAWYQQKPGQPPKLLISWASSRESGVPDRFSGSGSGTDFTLTISSLQAEDVAVYYCKQSYNLFTFGGGTKVEIKR
modifications: BI-P206 maytansinoid drug-linker on cysteines; positions not given; DAR 3.6 or 4.5
IC50 (nM), in vitro cytotoxicity (CCK-8, 72 h), BxPC-3 cells (TROP2 +++), ADC at DAR 3.6: 0.99 nM | IC50 (nM), in vitro cytotoxicity (CCK-8, 72 h), MDA-MB-468 cells (TROP2 ++), ADC at DAR 4.5: 2.66 nM | IC50 (nM), in vitro cytotoxicity (CCK-8, 72 h), NCI-N87 cells (TROP2 ++/+), ADC at DAR 3.6: 125 nM

B2: Anti-Trop-2-BI-P204 (antibody, V domains shown)
VH: SALMSRLTISKDTSKNQFSLKLSSVTAADTAVYYCARDENWDGAWFAYWGQGTLVTVSS
VL: DIVMTQSPDSLAVSLGERATINCKSSQSLLNSGTRKNYLAWYQQKPGQPPKLLISWASSRESGVPDRFSGSGSGTDFTLTISSLQAEDVAVYYCKQSYNLFTFGGGTKVEIKR
modifications: BI-P204 maytansinoid drug-linker on cysteines; positions not given; DAR 2.8 or 3.9
IC50 (nM), in vitro cytotoxicity (CCK-8, 72 h), BxPC-3 cells (TROP2 +++), ADC at DAR 2.8: 0.38 nM | IC50 (nM), in vitro cytotoxicity (CCK-8, 72 h), MDA-MB-468 cells (TROP2 ++), ADC at DAR 3.9: 1.81 nM | IC50 (nM), in vitro cytotoxicity (CCK-8, 72 h), NCI-N87 cells (TROP2 ++/+), ADC at DAR 2.8: 17.6 nM

B3: Anti-Trop-2-BI-P207 (antibody, V domains shown)
VH: SALMSRLTISKDTSKNQFSLKLSSVTAADTAVYYCARDENWDGAWFAYWGQGTLVTVSS
VL: DIVMTQSPDSLAVSLGERATINCKSSQSLLNSGTRKNYLAWYQQKPGQPPKLLISWASSRESGVPDRFSGSGSGTDFTLTISSLQAEDVAVYYCKQSYNLFTFGGGTKVEIKR
modifications: BI-P207 maytansinoid drug-linker on cysteines; positions not given; DAR 3.4 or 4.5
IC50 (nM), in vitro cytotoxicity (CCK-8, 72 h), BxPC-3 cells (TROP2 +++), ADC at DAR 3.4: 2.09 nM | IC50 (nM), in vitro cytotoxicity (CCK-8, 72 h), MDA-MB-468 cells (TROP2 ++), ADC at DAR 4.5: 4.29 nM | IC50 (nM), in vitro cytotoxicity (CCK-8, 72 h), NCI-N87 cells (TROP2 ++/+), ADC at DAR 3.4: 33.8 nM

B4: Anti-Trop-2-BI-P208 (antibody, V domains shown)
VH: SALMSRLTISKDTSKNQFSLKLSSVTAADTAVYYCARDENWDGAWFAYWGQGTLVTVSS
VL: DIVMTQSPDSLAVSLGERATINCKSSQSLLNSGTRKNYLAWYQQKPGQPPKLLISWASSRESGVPDRFSGSGSGTDFTLTISSLQAEDVAVYYCKQSYNLFTFGGGTKVEIKR
modifications: BI-P208 maytansinoid drug-linker on cysteines; positions not given; DAR 3.0 or 4.3
IC50 (nM), in vitro cytotoxicity (CCK-8, 72 h), BxPC-3 cells (TROP2 +++), ADC at DAR 3.0: 0.67 nM | IC50 (nM), in vitro cytotoxicity (CCK-8, 72 h), MDA-MB-468 cells (TROP2 ++), ADC at DAR 4.3: 2.22 nM | IC50 (nM), in vitro cytotoxicity (CCK-8, 72 h), NCI-N87 cells (TROP2 ++/+), ADC at DAR 3.0: 6.43 nM

B5: Anti-Trop-2-SMCC-DM1 (antibody, V domains shown)
VH: SALMSRLTISKDTSKNQFSLKLSSVTAADTAVYYCARDENWDGAWFAYWGQGTLVTVSS
VL: DIVMTQSPDSLAVSLGERATINCKSSQSLLNSGTRKNYLAWYQQKPGQPPKLLISWASSRESGVPDRFSGSGSGTDFTLTISSLQAEDVAVYYCKQSYNLFTFGGGTKVEIKR
modifications: SMCC-DM1 on lysines; positions not given; DAR 4
IC50 (nM), in vitro cytotoxicity (CCK-8, 72 h), BxPC-3 cells (TROP2 +++), ADC at DAR 4: 1.01 nM | IC50 (nM), in vitro cytotoxicity (CCK-8, 72 h), Colo205 cells (TROP2 +), ADC at DAR 4: 56.4 nM | IC50 (nM), in vitro cytotoxicity (CCK-8, 72 h), MDA-MB-468 cells (TROP2 ++), ADC at DAR 4: 4.88 nM | IC50 (nM), in vitro cytotoxicity (CCK-8, 72 h), NCI-N87 cells (TROP2 ++/+), ADC at DAR 4: 2.88 nM

B6: Anti-Trop-2-Vc-MMAE (antibody, V domains shown)
VH: SALMSRLTISKDTSKNQFSLKLSSVTAADTAVYYCARDENWDGAWFAYWGQGTLVTVSS
VL: DIVMTQSPDSLAVSLGERATINCKSSQSLLNSGTRKNYLAWYQQKPGQPPKLLISWASSRESGVPDRFSGSGSGTDFTLTISSLQAEDVAVYYCKQSYNLFTFGGGTKVEIKR
modifications: vc-MMAE drug-linker; conjugation site not stated; DAR 4
IC50 (nM), in vitro cytotoxicity (CCK-8, 72 h), BxPC-3 cells (TROP2 +++), ADC at DAR 4: 0.51 nM | IC50 (nM), in vitro cytotoxicity (CCK-8, 72 h), Colo205 cells (TROP2 +), ADC at DAR 4: 0.68 nM | IC50 (nM), in vitro cytotoxicity (CCK-8, 72 h), MDA-MB-468 cells (TROP2 ++), ADC at DAR 4: 0.54 nM | IC50 (nM), in vitro cytotoxicity (CCK-8, 72 h), NCI-N87 cells (TROP2 ++/+), ADC at DAR 4: 0.49 nM

B7: Anti-Trop-2-BI-P209 (antibody, V domains shown)
VH: SALMSRLTISKDTSKNQFSLKLSSVTAADTAVYYCARDENWDGAWFAYWGQGTLVTVSS
VL: DIVMTQSPDSLAVSLGERATINCKSSQSLLNSGTRKNYLAWYQQKPGQPPKLLISWASSRESGVPDRFSGSGSGTDFTLTISSLQAEDVAVYYCKQSYNLFTFGGGTKVEIKR
modifications: BI-P209 maytansinoid drug-linker on cysteines; positions not given; DAR 6.2
IC50 (nM), in vitro cytotoxicity (CCK-8, 72 h), Colo205 cells (TROP2 +), ADC at DAR 6.2: > 500 nM | IC50 (nM), in vitro cytotoxicity (CCK-8, 72 h), MDA-MB-468 cells (TROP2 ++), ADC at DAR 6.2: 5.37 nM
